In the DeepSol protein solubility set:

Assay: soluble on expression in E. coli; label from the status in PepcDB or PDB records

Sequence | soluble on expression in E. coli
MVRSMLYATDLGLYAPYVMQHALALARTFDAGLYVVHVVEPMGLFAESVLQSYLGEEALQELHGKGAHAFMEGIEQRMLDGFREELGEGHSDLSLIRTVRVVQGEPASVIIEQAHKLEVDLLVLGRHSASAQEGASIGRTAARILQSSGVPVYMVPIMSKALCQKGC | not soluble
GPGSMSTWEQAVEEADKAFAKRDCKAVCEIIEKAESDGTCHVQLMWRRARALHTLGDESLDKSEKERYARDAAVAAERAVEEDPTSAEANLWKAICIGILCDYLTTKERMSNVYVIRDHLLRSLELKSDNPDALHGMGMWSLSLLQISWFERSAASLLFGSLPTVSHEECLKYFLASHELRPSIRNCLALGNLFRYQGNWTEAKTWYQKALDIPAETHAHKQKQDEAVQLLNSC | soluble
MGSDKIHHHHHHMPLLDIRNLTIELDTPHGRVKALEKVSLMLHAGEIHGLVGESGSGRSLLARAVLGIPGPNWTITADRMMWDGRNLMEMSDVERRNLMGKDMAMIFQDPSGSLDPVITIGAQLIEAMPADKNVPFWRRGRERRLTAQKWLHKVGIKDPKRVMASYPWETSEGECQKVMIAMALANQPRLLIADEPTNSMEPSTQAQIFRLLAQLNQLQGVTIMMISHELETLADWCNNLTVLYCGQVMESGPIDELIREPLHPYTKALMDHLPDYRGNLPHKSLMPVLPGSAPALQHLPIGCRLGPRCPEARRECVHQPQLQHQKDRYYACHFPYRTETNNDDTAA | not soluble
MCSTEKLSEADANLPYFHGALMNIDADQLLVNEGDFMVTMKKQLDINKLQLFLAVRLKKGIRRYEIKRTSKTAKIGGKTSQNIVKLINMLKADPIEIRGEKVVLKRAIPKGKFQLMHKDVIFQKKIGAGAYGTVYRGKLVKTDEVIAVKKLDPEGADEDGLAEMMKEARVMQLYDHPNIVKFHGFILDDLPYLLVLEYCNGGAVEDRLRDKGEKIKVPTRVKYTYMAACGMDYLHKKNCIHRDIASRNCLIHKGVVKMADFGMCRAQSVYKVDLKKPCNIRWLAPEVWDNGETRFNTDVYAFGIMMWEFFETPFKSPYVEMKAAQVKRKTRAGYRLPPPPSMPSRMVEIMSECWQVDAEKRPTAEELKEKLEEFKKKTENSITTSAPPTSVEKSKLSVSSEPTTKSVDPNKSRL | not soluble
MSNEMKILLANPRGFCAGVDRAISIVERALELYQPPIYVRHEVVHNRFVVEGLKQRGAIFVEELHEVPDNNIVIFSAHGVSQAVRQEAKQRDLTVFDATCPLVTKVHMEVARASRRNMEVVLIGHAGHPEVEGTMGQYSSETGGMYLVETPADVEKLKAIVKDPSDLHYVSQTTLSVDETADVIEELRRVFPDIQGPRKDDICYATQNRQDAVRELAGDVDVMVVVGSKNSSNSTRLKELAEKLGTPGYLTDCPEDIKPEWFEGKTKVGVTAGASAPEELVNQILERIKELVGARSVDEVLGREENMFFEVPKELQIKQVD | not soluble
KKRIQTEHCSYNRRRDYPLFKFIEYVLYWGHHYTVSISEKVQEELVKFMPRYQHKYRVVHNGVDLNRFPMTAKQAHDISEKATINIGMVGRLHEHKDHETLIHAIAKLPECYHLHLAGDGDRKASLQRLAQSLNVSPRVHFHGVVSDIPRFLSDMDIYVQSSHVE | not soluble
MSLGSNKTIIINLNNLEHNLNLIKNKIGEKEIVATLKGDAYGHGLINIFKFLKSKNINYFGLSNIEDAKTLKKIDKNIKILMYIKVDKKEIKNLIKFELVPFVSDFEYLFLIEKECALQKNKIKVHLKIDIGMNRYGIKIDDALEIATYIQNSKFLELEGICSHLPSIENFKTTQKQIEQFLFFLETLKQKNIHPKFVHISNSGHIINYKLNPQFNMVRPGLILYGYCQSEGHHHHHH | not soluble
MGSDKIHHHHHHMDYWEKADYSWSDDSKRHILTPSSKSRTLFYYIQEIGQFKASRPYYTERAHLPSYLIKFTLNGTGELRYRYHTYSLQRGDLFFIDCRDYQYYQATSEDPWEMDWIHFEGGNSGAFFQEFMKNGSPVFSTNQLPEDNPIHLIIQQLLQLQDLQHAQTDYQSSVLIHQLLNELLLQKYRQDFTYETIPSLVLEMKAYIDQHFKETISLEDLAQLFHLNKYQLNKEFSKYIGLPPIKYQISKKISYSKDLLRYSNQTVKEIAVDVGLENYAYFSRLFKKRTGLTPSQYRKSGF | not soluble
MPLPDFHVSEPFTLGIELEMQVVNPPGYDLSQDSSMLIDAVKNKITAGEVKHDITESMLELATDVCRDINQAAGQFSAMQKVVLQAATDHHLEICGGGTHPFQKWQRQEVCDNERYQRTLENFGYLIQQATVFGQHVHVGCASGDDAIYLLHGLSRFVPHFIALSAASPYMQGTDTRFASSRPNIFSAFPDNGPMPWVSNWQQFEALFRCLSYTTMIDSIKDLHWDIRPSPHFGTVEVRVMDTPLTLSHAVNMAGLIQATAHWLLTERPFKHQEKDYLLYKFNRFQACRYGLEGVITDPHTGDRRPLTEDTLRLLEKIAPSAHKIGASSAIEALHRQVVSGLNEAQLMRDFVADGGSLIGLVKKHCEIWAGD | soluble
MNERGMLVDPRFDAFFKLEQIDDYKYDGADTSPSTSNGLPETSNGGRLICDVCGDVAFGKHYGINACNGCKGFFRRSVWSRRQYSCRFGGDCPVVKEHRNVCRSCRLKKCFEVGMNPDSVQNERDRNAKNGGMGGPMSSPTQSSLCKELTISNGQIKRKRLRPETVEKTTQTDGKLEINDDFDFENMQQNPTPPGLLPLKIERISTPPSDLPVPMDFSIHSAVLDIEQKVFYNCPVAVDNSINATKTPITLPFEVVFRQPHLVCNRYPMRFSNTRVLTPEDLIDGWRRHFTYYSDWCHAMDEFKALSPEDQIVLAKKKIILHGWLVHAYYSYKSGCNGICFANGAAHLPEGGHPSITEFYKECMPRYLNYVIYPMHNFQMDDAEMVLIKCIMFFSSESGLSAAGRQIVSAAREKYLSALYNYGRANKCTTSAQATLRIAKFMIMLSAITSLTHLMNEGVHVTSLFNIIEFDELIQATHKTTPPQHSPPAPMG | not soluble
DIQMTQSPASLSASVGETVTITCRASENIYSYLAWYQQKQGKSPQLLVYNAKTLAEGVPSRFSGSGSGTQFSLKINSLQPEDFGSYYCQHHYGTPFTFGSGTKLEIKRHHHHHH | soluble
MGSDKIHHHHHHMTQVIPPRCDTCACDDADWCHLQETTKLLLLATAQIELSLTDGDHNVTGLGQLFTQMAGHLTEVNRHLHGTADTPAAILAHSDSLMQAIDSGVMAFQFYDRISQRLNHVITALSLMEAMLGDEQRRHSQAAWTNLQGEIQAHYSLDCERQMFAALLEGVPIHEALNAYRETHLHQTKQDVELF | not soluble
KIIHIDCDCFYAALEMRDDPSLRGKALAVGGSPDKRGVVATCSYEARAYGVRSAMAMRTALKLCPDLLVVRPRFDVYRAVSKQIHAIFRDYTDLIEPLSLDEAYLDVSASPHFAGSATRIAQDIRRRVAEELHITVSAGVAPNKFLAKIASDWRKPDGLFVITPEQVDGFVAELPVAKLHGVGKVTAERLARMGIRTCADLRQGSKLSLVREFGSFGERLWGLAHGIDERPVEVDSRRQSVSVECTFDRDLPDLAACLEELPTLLEELDGRLQRLDGSYRPDKPFVKLKFHDFTQTTVEQSGAGRDLESYRQLLGQAFARGNRPVRLIGVGVRLLDLQGAHEQLR | not soluble
MDWQNRFSVLNLSSHDPLPELMLTHLTGWGAITLVGADKKAYLQGQVTCNVVSLQEQQVTFGAHCDAKGKVWSVFRLFHHHDGYAMFQPQSAMEVELRELKKYAIFSKVTIAESSDIALGVMGSQADAWIDTVSETTGDVRRIAGGTAVRMSPQRWLLLVNAEQAEQYVNAWQGLHVEQSLWTRMDIEEAVPVVTQTAQNEHIPQALNVQAVDGISFTKGCYTGQETVARAKYRGINKRAMYIVKGNLSAPLSQDEPVVLERAVGENWRSAGALLTHYRFTDSIAIGLIVLPNDLEHDVKLRLAAQPDTRWHIQPLPYSLSDELEHHHHHH | soluble
MSLDTPDYKRVVLKLSGEALAGNDGFGINPSVVNLISAQIKEVVELGVEVAIVVGGGNIWRGKLGSEMGMDRAAADQMGMLATIMNSLSLQDSLENIGVATRVQTSIDMRQIAEPYIRRKAIRHLEKGRVVIFAGGTGNPYFSTDTAAALRAAEIEADVILMAKNNVDGVYNADPKLDENAKKYEELSYLDVIKEGLEVMDTTASSLSMDNDIPLIVFSFTEQGNNIKRVILGEKIGTTVRGKKEGHHHHHH | soluble
ICFSKIFNTQYLSDIRYIDLNQNIDTIKSNFKKGLRYNIKKSKNEGCDLKIIENPSSEDIDHFMECYNSMLCRNESSEKYHFSKQFIMDHFKFIKTFLILAYYQKKVVGAGIFFKGETIMHYHLSGTLKLKGIYPNDLILWESIKKSKDLGLKYFFLGGGVIKDDSLFEYKSGFSK | not soluble
